{
  "source": "paper PMC8357826",
  "about": "“The extracellular chaperone Clusterin enhances Tau aggregate seeding in a cellular model” (Nature Communications, 2021)",
  "binders": {"B1": {"name": "Clusterin (Clu; apolipoprotein J), recombinant with Strep tag (CluStrep) (natural protein, human)", "chain 1": "DQTVSDNELQEMSNQGSKYVNKEIQNAVNGVKQIKTLIEKTNEERKTLLSNLEEAKKKKEDALNETRESETKLKELPGVCNETMMALWEECKPCLKQTCMKFYARVCRSGSGLVGRQLEEFLNQSSPFYFWMNGDRIDSLLENDRQQTHMLDVMQDHFSRASSIIDELFQDRFFTREPQDTYHYLPFSLPHRRPHFFFPKSRIVR", "chain 2": "SLMPFSPYEPLNFHAMFQPFLEMIHEAQQAMDIHFHSPAFQHPPTEFIREGDDDRTVCREIRHNSTGCLRMKDQCDKCREILSVDCSTNNPSQAKLRRELDESLQVAERLTRKYNELLKSYQWKMLNTSSLLEQLNEQFNWVSRLANLTQGEDQYYLRVTTVASHTSDSDVPSGVTEVVVKLFDSDPITVTVPVEVSRKNPKFMETVAEKALQEYRKKHREE", "modifications": "N-glycosylated | N-glycosylated"}},
  "biological_target": "cysteine-free TauRD (Tau repeat domain, residues 244-371, C291A/P301L/C322A/V337M) (UniProt P10636-8 244-371, C291A | P301L | C322A | V337M)",
  "sequence (P10636 561-688 C608A/P618L/C639A/V654M)": "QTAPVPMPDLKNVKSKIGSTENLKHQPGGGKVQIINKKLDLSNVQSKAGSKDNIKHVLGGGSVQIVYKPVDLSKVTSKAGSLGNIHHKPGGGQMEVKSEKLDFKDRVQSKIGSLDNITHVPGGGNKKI",
  "test": "cell-based or functional assay",
  "data": [
    {"binder": "B1", "values": [
      {"measurement": "seeding capacity in TauRD-YT cells of the soluble fraction of a TauRD aggregation reaction made without Clu, after adding Clu", "value": "~5", "unit": "fold"},
      {"measurement": "specific seeding activity (FRET-positive TauRD-YT cells per ng TauRD) of the Clu-containing supernatant against the supernatant without Clu", "value": "~40", "unit": "fold"}
    ]}
  ]
}
